Legend:
[1] = molecular target: T1, SLC4A2 (human, UniProt P04920 1-1241, limits assumed); test: IP/MS, LZTR1 wild type-FLAG, U87
T1 sequence (looked up): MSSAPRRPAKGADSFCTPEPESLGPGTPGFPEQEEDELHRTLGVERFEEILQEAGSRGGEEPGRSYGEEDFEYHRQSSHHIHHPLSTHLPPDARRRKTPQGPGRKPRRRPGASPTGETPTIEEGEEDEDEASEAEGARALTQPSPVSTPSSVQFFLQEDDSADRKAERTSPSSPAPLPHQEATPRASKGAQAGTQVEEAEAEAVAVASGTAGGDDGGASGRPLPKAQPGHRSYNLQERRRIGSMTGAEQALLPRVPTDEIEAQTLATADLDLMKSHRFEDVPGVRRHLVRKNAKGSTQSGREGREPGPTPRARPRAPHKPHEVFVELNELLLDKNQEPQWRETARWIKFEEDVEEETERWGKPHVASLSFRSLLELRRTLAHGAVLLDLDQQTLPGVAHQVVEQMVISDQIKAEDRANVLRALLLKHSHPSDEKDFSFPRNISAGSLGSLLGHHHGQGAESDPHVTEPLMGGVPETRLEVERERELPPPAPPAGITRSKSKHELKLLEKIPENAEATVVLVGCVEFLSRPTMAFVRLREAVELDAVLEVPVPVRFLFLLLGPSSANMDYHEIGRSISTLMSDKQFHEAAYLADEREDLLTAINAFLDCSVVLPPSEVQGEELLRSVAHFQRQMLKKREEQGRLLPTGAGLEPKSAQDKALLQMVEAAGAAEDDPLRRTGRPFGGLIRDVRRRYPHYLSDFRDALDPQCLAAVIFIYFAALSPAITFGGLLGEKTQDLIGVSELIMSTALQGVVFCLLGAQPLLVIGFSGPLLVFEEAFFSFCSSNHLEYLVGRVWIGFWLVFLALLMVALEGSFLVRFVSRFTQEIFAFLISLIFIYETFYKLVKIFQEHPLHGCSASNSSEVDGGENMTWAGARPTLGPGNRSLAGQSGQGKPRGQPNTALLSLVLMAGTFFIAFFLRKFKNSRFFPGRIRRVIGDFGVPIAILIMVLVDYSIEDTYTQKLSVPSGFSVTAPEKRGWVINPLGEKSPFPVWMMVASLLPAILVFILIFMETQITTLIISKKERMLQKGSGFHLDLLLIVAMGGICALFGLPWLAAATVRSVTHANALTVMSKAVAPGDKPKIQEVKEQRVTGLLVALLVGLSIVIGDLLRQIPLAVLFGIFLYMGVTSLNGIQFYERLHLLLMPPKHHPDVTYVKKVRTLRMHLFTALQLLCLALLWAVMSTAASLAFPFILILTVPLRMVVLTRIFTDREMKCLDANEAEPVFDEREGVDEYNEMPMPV
Procedure, shortened: (§1)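 Extracted peptides in 3% acetonitrile/0.1% formic acid ran on a 50 cm C18 column into an Orbitrap Fusion, with MaxQuant identification and spectral counting.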

[2] = molecular target: T2, CTDP1 (human, UniProt Q9Y5B0 1-961, limits assumed); test: IP/MS, LZTR1 wild type-FLAG, U87
T2 sequence (looked up): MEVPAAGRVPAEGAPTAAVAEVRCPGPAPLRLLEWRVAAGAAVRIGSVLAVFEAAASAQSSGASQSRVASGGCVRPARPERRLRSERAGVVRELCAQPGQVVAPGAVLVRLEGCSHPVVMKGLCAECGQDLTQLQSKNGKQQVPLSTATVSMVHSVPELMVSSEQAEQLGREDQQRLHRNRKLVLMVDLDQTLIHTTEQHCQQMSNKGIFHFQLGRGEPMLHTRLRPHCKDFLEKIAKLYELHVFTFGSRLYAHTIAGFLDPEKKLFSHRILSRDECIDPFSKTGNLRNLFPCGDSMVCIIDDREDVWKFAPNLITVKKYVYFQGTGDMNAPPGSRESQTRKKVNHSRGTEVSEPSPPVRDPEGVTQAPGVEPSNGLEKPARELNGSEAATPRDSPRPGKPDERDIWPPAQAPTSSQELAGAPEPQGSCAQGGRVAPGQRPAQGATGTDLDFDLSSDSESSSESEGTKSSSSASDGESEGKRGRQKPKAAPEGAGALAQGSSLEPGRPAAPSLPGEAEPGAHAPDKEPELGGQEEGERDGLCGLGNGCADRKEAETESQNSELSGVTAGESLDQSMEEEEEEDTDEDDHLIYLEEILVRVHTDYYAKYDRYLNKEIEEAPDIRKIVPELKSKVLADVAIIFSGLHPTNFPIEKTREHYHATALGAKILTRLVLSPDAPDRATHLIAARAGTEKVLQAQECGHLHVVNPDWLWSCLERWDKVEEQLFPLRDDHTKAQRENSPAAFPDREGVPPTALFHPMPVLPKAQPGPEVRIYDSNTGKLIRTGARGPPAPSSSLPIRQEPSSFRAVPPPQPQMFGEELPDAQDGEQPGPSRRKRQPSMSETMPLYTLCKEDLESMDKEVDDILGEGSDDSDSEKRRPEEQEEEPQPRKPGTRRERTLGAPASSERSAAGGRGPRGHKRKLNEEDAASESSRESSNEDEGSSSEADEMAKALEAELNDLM
Procedure, shortened: as §1

binding result [1]: binds
binding result [2]: binds
B1: LZTR1-FLAG (other, human, UniProt Q8N653 1-840, looked up)
chain: MAGPGSTGGQIGAAALAGGARSKVAPSVDFDHSCSDSVEYLTLNFGPFETVHRWRRLPPCDEFVGARRSKHTVVAYKDAIYVFGGDNGKTMLNDLLRFDVKDCSWCRAFTTGTPPAPRYHHSAVVYGSSMFVFGGYTGDIYSNSNLKNKNDLFEYKFATGQWTEWKIEGRLPVARSAHGATVYSDKLWIFAGYDGNARLNDMWTIGLQDRELTCWEEVAQSGEIPPSCCNFPVAVCRDKMFVFSGQSGAKITNNLFQFEFKDKTWTRIPTEHLLRGSPPPPQRRYGHTMVAFDRHLYVFGGAADNTLPNELHCYDVDFQTWEVVQPSSDSEVGGAEVPERACASEEVPTLTYEERVGFKKSRDVFGLDFGTTSAKQPTQPASELPSGRLFHAAAVISDAMYIFGGTVDNNIRSGEMYRFQFSCYPKCTLHEDYGRLWESRQFCDVEFVLGEKEECVQGHVAIVTARSRWLRRKITQARERLAQKLEQEAAPVPREAPGVAAGGARPPLLHVAIREAEARPFEVLMQFLYTDKIKYPRKGHVEDVLLIMDVYKLALSFQLCRLEQLCRQYIEASVDLQNVLVVCESAARLQLSQLKEHCLNFVVKESHFNQVIMMKEFERLSSPLIVEIVRRKQQPPPRTPLDQPVDIGTSLIQDMKAYLEGAGAEFCDITLLLDGHPRPAHKAILAARSSYFEAMFRSFMPEDGQVNISIGEMVPSRQAFESMLRYIYYGEVNMPPEDSLYLFAAPYYYGFYNNRLQAYCKQNLEMNVTVQNVLQILEAADKTQALDMKRHCLHIIVHQFTKVSKLPTLRSLSQQLLLDIIDSLASHISDKQCAELGADI
notes: Expressed in HEK 293T, HeLa or U87 cells; used as cell lysate; also called LZTR1 wild type-FLAG; LZTR1 WT; not shown: FLAG tag at the C-terminus

Reference: patent US20250262210A1 (TRUSTEES OF COLUMBIA UNIVERSITY IN THE CITY OF NEW YORK, published 2025)
